IntAct's records for PubMed 29281743

B1: Protein deacetylase HDAC6 (Homo sapiens), Q9UBN7 (parent)
chain: MTSTGQDSTTTRQRRSRQNPQSPPQDSSVTSKRNIKKGAVPRSIPNLAEVKKKGKMKKLGQAMEEDLIVGLQGMDLNLEAEALAGTGLVLDEQLNEFHCLWDDSFPEGPERLHAIKEQLIQEGLLDRCVSFQARFAEKEELMLVHSLEYIDLMETTQYMNEGELRVLADTYDSVYLHPNSYSCACLASGSVLRLVDAVLGAEIRNGMAIIRPPGHHAQHSLMDGYCMFNHVAVAARYAQQKHRIRRVLIVDWDVHHGQGTQFTFDQDPSVLYFSIHRYEQGRFWPHLKASNWSTTGFGQGQGYTINVPWNQVGMRDADYIAAFLHVLLPVALEFQPQLVLVAAGFDALQGDPKGEMAATPAGFAQLTHLLMGLAGGKLILSLEGGYNLRALAEGVSASLHTLLGDPCPMLESPGAPCRSAQASVSCALEALEPFWEVLVRSTETVERDNMEEDNVEESEEEGPWEPPVLPILTWPVLQSRTGLVYDQNMMNHCNLWDSHHPEVPQRILRIMCRLEELGLAGRCLTLTPRPATEAELLTCHSAEYVGHLRATEKMKTRELHRESSNFDSIYICPSTFACAQLATGAACRLVEAVLSGEVLNGAAVVRPPGHHAEQDAACGFCFFNSVAVAARHAQTISGHALRILIVDWDVHHGNGTQHMFEDDPSVLYVSLHRYDHGTFFPMGDEGASSQIGRAAGTGFTVNVAWNGPRMGDADYLAAWHRLVLPIAYEFNPELVLVSAGFDAARGDPLGGCQVSPEGYAHLTHLLMGLASGRIILILEGGYNLTSISESMAACTRSLLGDPPPLLTLPRPPLSGALASITETIQVHRRYWRSLRVMKVEDREGPSSSKLVTKKAPQPAKPRLAERMTTREKKVLEAGMGKVTSASFGEESTPGQTNSETAVVALTQDQPSEAATGGATLAQTISEAAIGGAMLGQTTSEEAVGGATPDQTTSEETVGGAILDQTTSEDAVGGATLGQTTSEEAVGGATLAQTTSEAAMEGATLDQTTSEEAPGGTELIQTPLASSTDHQTPPTSPVQGTTPQISPSTLIGSLRTLELGSESQGASESQAPGEENLLGEAAGGQDMADSMLMQGSRGLTDQAIFYAVTPLPWCPHLVAVCPIPAAGLDVTQPCGDCGTIQENWVCLSCYQVYCGRYINGHMLQHHGNSGHPLVLSYIDLSAWCYYCQAYVHHQALLDVKNIAHQNKFGEDMPHPH

Variants of: B1
Details: with myd88_human MYD88, Q99836
Sequence of myd88_human MYD88, Q99836 (Q99836 whole entry): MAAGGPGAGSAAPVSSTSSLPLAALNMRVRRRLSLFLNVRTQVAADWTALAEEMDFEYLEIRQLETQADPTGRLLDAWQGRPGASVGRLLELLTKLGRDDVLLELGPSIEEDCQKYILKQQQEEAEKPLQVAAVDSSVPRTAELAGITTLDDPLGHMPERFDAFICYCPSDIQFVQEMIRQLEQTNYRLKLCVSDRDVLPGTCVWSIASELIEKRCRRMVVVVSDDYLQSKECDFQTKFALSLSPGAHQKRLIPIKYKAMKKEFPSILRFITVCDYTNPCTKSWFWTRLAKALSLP

| Variant | effect of a mutation on the interaction |
| --- | --- |
| H216A;H611A | with no effect |
